Values quoted from earlier work as cited in US20250099434A1, “METHODS OF TREATING AMYLOID RELATED BRAIN DISORDERS USING NOVEL COMPOUNDS AND ANTIBODIES” (T3D Therapeutics, Inc., priority 2022, published 2025).

How the values were obtained:
[1] = EXPEDITION-3; cited from earlier work
[2] = human, in vivo; cited from earlier work
[3] = test system: Aβ fibrils; details: cited from earlier work
[4] = test system: brain amyloid; details: cited from earlier work

Q: For “solanezumab: humanized monoclonal IgG1 antibody directed against the mid-domain of the Aβ peptide”, which “incidence of vasogenic edema (ARIA-E), patients treated” value [1] is on record?
A: approximately 0.1%

Q: For “Crenezumab: humanized antibody with an IgG4 backbone recognizing multiple forms of aggregated Aβ”, which ARIA incidence [2] is on record?
A: low

B1: Gantenerumab: fully human IgG1 antibody binding a conformational epitope on Aβ fibrils (antibody, chains of the INN, looked up, V domains shown)
VH: QVELVESGGGLVQPGGSLRLSCAASGFTFSSYAMSWVRQAPGKGLEWVSAINASGTRTYYADSVKGRFTISRDNSKNTLYLQMNSLRAEDTAVYYCARGKGNTHKPYGYVRYFDVWGQGTLVTVSS
VL: DIVLTQSPATLSLSPGERATLSCRASQSVSSSYLAWYQQKPGQAPRLLIYGASSRATGVPARFSGSGSGTDFTLTISSLEPEDFATYYCLQIYNMPITFGQGTKVEIK
Q: What does the source list for B1?
A: affinity to a conformational epitope on Aβ fibrils [3]: sub-nanomolar; lowering of brain amyloid, average, florbetapir PET ([4]; dosed as high as 1200 mg subcutaneously): 59 centiloid; participants who developed ARIA-E ([4]; extension studies): one-third; patients with ARIA ([4]; highest dose): one third
